Series [1] is described as follows: HA immunoblot of auto-cleavage. The conditions noted are these: glycan lost; control: wild-type SHH-HA.
A short description of series [2]: cycloheximide chase of SHH-C, HA immunoblot. The conditions noted are these: glycan changed form; control: untreated cells. (In general: A western blot detects proteins with antibodies after separation by electrophoresis.)

The values that follow come from paper PMC4049591.

For sonic hedgehog (SHH): N278A, the “other: proteolytic processing” value in series [1] is on record as “abolishes”.
Take sonic hedgehog (SHH): kifunensine (KIF): the degradation_or_half_life result in series [2] is listed as “decreases”.
On the same count and under the same terms, in the case of “sonic hedgehog (SHH): castanospermine (CST)” it was “decreases”.
